Measured values as given in patent US20070117180A1, “Enzyme producing plasma protein fragment having inhibitory activity to metastasis and growth of cancer and plasma protein fragment produced by fragmentation by said enzyme” (priority 1998, published 2007).

Key:
[1] = system: bovine aorta endothelial (BAE) cells; experiment: Test for inhibitory activity to growth of vascular endothelial cells, bovine aorta endothelial cells; type: cell-based; set-up: dose or concentration left out as unconfirmed; details: cell count after 72 hours, plasminogen fragments
Description: The activity of the plasminogen fragments was also estimated as described by O'Reilly et al. using bovine aorta endothelial (BAE) cells purchased from Sanko Jun-yaku K.K. BAE cells were cultured for maintenance on a 24-well plate (manufactured by Iwaki Glass K.K.) coated with gelatin in a DMEM basal medium containing 10% fetal calf serum (FCS), 3 ng/ml basic FGF (bFGF), 1% glutamine, 1% penicillin and 1% streptomycin at 5% CO2. BAE cells were plated on a 24-well gelatin-coated plate at 12,500 cells/well and cultured on the basal medium deprived of bFGF for 24 hours. […] contained 5% FCS but was deprived of bFGF and the plasminogen fragments were reacted with the cells at 37° C. for 20 minutes. A physiological saline was used as a negative control whereas angiostatin (Angiostatin, manufactured by Technoclone) was used as a positive control. After reaction, the basal medium containing 5% FCS and 2 ng/ml bFGF was added and the cells were cultured at 37° C. for additional 72 hours. The cells were peeled off the well with trypsin/EDTA solution and counted with Coulter counter (manufactured by Coulter).

[2] = system: Lewis lung cancer cells (LL/2); experiment: Test for inhibitory activity to growth of metastasized cancerous focus (weight of the lung); type: in vivo, C57B1 mice; details: n=6, control 0.44±0.28
Description: The protein fragments prepared as described above were dissolved in a physiological saline and used as a sample for animal tests. As a system for estimating an inhibitory effect to growth of metastasized cancerous focus, cancer capable of metastasis and growth was transplanted to mice where distally metastasized cancerous focus was observed. Lung cancer cells (LL/2; Dainippon Seiyaku K.K.) were subcutaneously transplanted to mice at the back. The animals were bred until a primary cancerous focus grows up to a predetermined size and the primary focus was then removed surgically. […] As a control, mice were administered with a physiological saline alone as used for dissolving the lyophilized sample (test for inhibitory activity to growth of metastasized cancerous focus).
After completion of each test, mice were dissected. The number of nodes on the lung surface, in case of test for inhibitory activity to metastasis and growth of cancer, or a weight of the lung, for test for inhibitory activity to growth of metastasized cancerous focus, was measured respectively and compared with control groups (Mann Whetney U test). […] In test for inhibitory activity to growth of metastasized cancerous focus, the lung was measured 0.44±0.28 g (n=6) for the control group while it was measured 0.23±0.08 g (n=6) for the group administered with the plasminogen fragment. […]

[3] = set-up: species or system mice; details: mouse, in vivo, iv
Lung cancer cells (LL/2) = experiment: Test for inhibitory activity to metastasis and growth of cancer (number of nodes on the lung surface); type: in vivo, mice
Description: The protein fragments prepared as described above were dissolved in a physiological saline and used as a sample for animal tests. As a system for estimating an inhibitory effect to growth of metastasized cancerous focus, cancer capable of metastasis and growth was transplanted to mice where distally metastasized cancerous focus was observed. Lung cancer cells (LL/2; Dainippon Seiyaku K.K.) were subcutaneously transplanted to mice at the back. The animals were bred until a primary cancerous focus grows up to a predetermined size and the primary focus was then removed surgically. The sample was administered to mice intraperitoneally at 1 mg/mouse/day for 10 days. […]
After completion of each test, mice were dissected. The number of nodes on the lung surface, in case of test for inhibitory activity to metastasis and growth of cancer, or a weight of the lung, for test for inhibitory activity to growth of metastasized cancerous focus, was measured respectively and compared with control groups (Mann Whetney U test). […] In test for inhibitory activity to growth of metastasized cancerous focus, the lung was measured 0.44±0.28 g (n=6) for the control group while it was measured 0.23±0.08 g (n=6) for the group administered with the plasminogen fragment.

[4] = General pharmacological test, effects on the respiratory and circulatory organs; type: in vivo; details: Beagle dog

B1: plasminogen fragments: plasminogen fragments comprising Kringles 1 to 4 produced by cleavage of plasminogen with PACE4 (protein)
chain: VIMAENRKSSIIIRMRDVVLFEKKVYLSECKTGNGKNYRGTMSKTKNGITCQKWSSTSPHRPRFSPATHPSEGLEENYCRNPDNDPQGPWCYTTDPEKRYDYCDILECEEECMHCSGENYDGKISKTMSGLECQAWDSQSPHAHGYIPSKFPNKNLKKNYCRNPDRELRPWCFTTDPNKRWELCDIPRCTTPPPSSGPTYQCLKGTGENYRGNVAVTVSGHTCQHWSAQTPHTHNRTPENFPCKNLDENYCRNPDGKRAPWCHTTNSQVRWEYCKIPSCDSSPVSTEQLAPTAPPELTPVVQDCYHGDGQSYRGTSSTTTTGKKCQSWSSMTPHRHQKTPENYPNAGLTMNYCRNPDADKGPWCFTTDPSVRWEYCNL
inhibitory activity to growth of the vascular endothelial cells [1]: no inhibitory activity | inhibitory activity to growth of the vascular endothelial cells ([1]; listed as plasminogen fragment): inhibitory effects to its growth have not been obtained | weight of the lung ([2]; 25 μg/animal intraperitoneally for 10 days, dissected Day 11): 0.23 ± 0.08 g | weight of the lung ([2]; 1 mg/mouse/day intraperitoneally for 10 days): 0.23 ± 0.08 g | safety in single-dose toxicity test [3]: confirmed for their safety | number of nodes representing metastasis and growth of cancer (Lung cancer cells (LL/2); 1 mg/mouse/day intraperitoneally for 10 days after removal of primary focus, n=6, control 6.3±0.2): 2.1 ± 0.8 | inhibitory activity to metastasis and growth of cancer cells (Lung cancer cells (LL/2); mouse model in which Lewis lung cancer was transplanted): had an inhibitory activity to metastasis and growth of cancer cells | safety in general pharmacological test (respiratory and circulatory organs) [4]: confirmed for their safety
